From patent US20050002904A1, “Uses of vascular endothelial growth factor and type I collagen inducible protein (VCIP)” (priority 2003, published 2005)

Target: αvβ3 and α5β1 integrins presented on adjacent cells
Experiment: cell-based or functional assay

Row | Binder | % cell aggregates, HEK cells stably expressing pLNCX2-VCIP-RGD (WT), no substance [%] | % cell aggregates of WT cells with … 10 nM [%] | % cell aggregates of WT cells with … 30 nM [%] | % cell aggregates of WT cells with … 50 nM [%] | % cell aggregates, HEK cells stably expressing pLNCX2-VCIP-RGE (MT), no substance [%]
1 | wild-type VCIP/PAP2b, HA-tagged, expressed from pLNCX2-VCIP-RGD, O14495 1-311 (protein) YPYDVPDYAYPYDVPDYAYPYDVPDYAMQNYKYDKAIVPESKNGGSPALNNNPRRSGSKRVLLICLDLFCLFMAGLPFLIIETSTIKPYHRGFYCNDESIKYPLKTGETINDAVLCAVGIVIAILAIITGEFYRIYYLKKSRSTIQNPYVAALYKQVGCFLFGCAISQSFTDIAKVSIGRLRPHFLSVCNPDFSQINCSEGYIQNYRCRGDDSKVQEARKSFFSGHASFSMYTMLYLVLYLQARFTWRGARLLRPLLQFTLIMMAFYTGLSRVSDHKHHPSDVLAGFAQGALVACCIVFFVSDLFKTKTTLSLPAPAIRKEILSPVDIIDRNNHHNMM | 94 |  |  |  | 
2 | NYRCRADDSK [mutant peptide …] |  | 92 | 89 | 90 | 
3 | mutant VCIP/PAP2b-RGE, HA-tagged, expressed from pLNCX2-VCIP-RGE, O14495 1-311 (protein) YPYDVPDYAYPYDVPDYAYPYDVPDYAMQNYKYDKAIVPESKNGGSPALNNNPRRSGSKRVLLICLDLFCLFMAGLPFLIIETSTIKPYHRGFYCNDESIKYPLKTGETINDAVLCAVGIVIAILAIITGEFYRIYYLKKSRSTIQNPYVAALYKQVGCFLFGCAISQSFTDIAKVSIGRLRPHFLSVCNPDFSQINCSEGYIQNYRCRGEDSKVQEARKSFFSGHASFSMYTMLYLVLYLQARFTWRGARLLRPLLQFTLIMMAFYTGLSRVSDHKHHPSDVLAGFAQGALVACCIVFFVSDLFKTKTTLSLPAPAIRKEILSPVDIIDRNNHHNMM |  |  |  |  | 0
4 | NYRCRGDDSK [peptide …] |  | 67 | 46 | 28 | 
